Reference: patent US20250304655A1

Target: human hemoglobin (HbA) (human) (UniProt P69905)
Test: cell-based or functional assay

human hemoglobin (HbA) (human), sequence (P69905 2-142 limits assumed, chain 1 of 2): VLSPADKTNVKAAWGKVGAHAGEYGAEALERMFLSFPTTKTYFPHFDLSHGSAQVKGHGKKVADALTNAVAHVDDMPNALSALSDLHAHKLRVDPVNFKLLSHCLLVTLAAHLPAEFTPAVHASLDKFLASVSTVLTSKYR
human hemoglobin (HbA) (human), sequence (P68871 2-147 limits assumed, chain 2 of 2, further chain): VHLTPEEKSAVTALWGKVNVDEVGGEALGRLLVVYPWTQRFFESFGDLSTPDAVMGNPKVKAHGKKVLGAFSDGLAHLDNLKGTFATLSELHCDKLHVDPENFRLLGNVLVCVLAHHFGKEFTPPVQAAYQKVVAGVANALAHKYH

## recHp1-1
  median relative relaxation: 83%
